The values below are quoted from earlier work in publication PMC4954776.

pKd: −log10 of the molar value.

For the data set, the target named is BRAF kinase domain 448-723 (Homo sapiens) (UniProt P15056). Put plainly: sedimentation equilibrium.

Sequence of BRAF kinase domain 448-723 (P15056 448-723): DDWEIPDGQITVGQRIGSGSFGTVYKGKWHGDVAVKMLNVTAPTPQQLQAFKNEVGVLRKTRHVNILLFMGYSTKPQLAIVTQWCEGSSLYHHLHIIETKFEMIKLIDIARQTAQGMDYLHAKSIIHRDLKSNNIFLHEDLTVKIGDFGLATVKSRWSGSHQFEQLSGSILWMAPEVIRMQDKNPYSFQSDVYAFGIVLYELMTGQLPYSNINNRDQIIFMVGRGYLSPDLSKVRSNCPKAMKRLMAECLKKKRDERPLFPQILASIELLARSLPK

With “BRAF kinase domain 448-723 (from UniProt P15056)”, the pKd is greater than 5.20.
